Target: ECOR31 mCpol (minimal CRISPR polymerase) with residual ENLYFQ cleavage site (E. coli ECOR31)
Experiment: SEC; HiLoad 16/600 Superdex 200 pg, 20 mM Tris-HCl pH 8.0, 500 mM KCl, 10% glycerol, 1 mM TCEP; elution compared with a molecular weight standard

stoichiometry N: 2
Substance: ECOR31 mCpol (minimal CRISPR polymerase) with residual ENLYFQ cleavage site (enzyme)
